Measured values as given in the DeepSol protein solubility set.

experiment: soluble on expression in E. coli; label from the status in PepcDB or PDB records

Question: For “MDLTKLTFESVFGGSDVPMKPSRSEDNKTPRNRTDLEMFLKKTPLMVLEEAAKAVYQKTPTWGTVELPEGFEMTLILNEITVKGQATSKKAARQKAAVEYLRKVVEKGKHEIFFIPGTTKEEALSNIDQISDKAEELKRSTSDAVQDNDNDDSIPTSAEFPPGISPTENWVGKLQEKSQKSKLQAPIYEDSKNERTERFLVICTMCNQKTRGIRSKKKDAKNLAAWLMWKALEDGIESLESYDMVDVIENLEEAEHLLEIQDQASKIKDKHSALIDILSDKKRFSDYSMDFNVLSVSTMGIHQVLLEISFRRLVSPDPDDLEMGAEHTQTEEIMKATAEKEKLRKKNMPDSGPLVFAGHGSSAEEAKQCACKSAIIHFNTYDFTD”, which “soluble on expression in E. coli” value is on record?
Answer: not soluble

Question: For “MGSDKIHHHHHHENLYFQGMTEKSQEPTAALDAEQVAAYLSQHPEFFVEHDELIPELRIPHQPGDAVSLVERQVRLLRERNIEMRHRLSQLMDVARENDRLFDKTRRLVLDLLDATSLEDVVSTVEDSLRHEFQVPYVSLILFSDSSVSVGRSVSSAEAHQAIGGLLSGGKTVCGVLRPHELAFLFGESDRDEIGSAAVVSLSFQGLHGVLAIGSPDPQHYKSSLGTLFLGYVAEVLARVLPRFSSPLRSVR”, which “soluble on expression in E. coli” value is on record?
Answer: soluble

Question: For “MGSDKIHHHHHHMFMKNLYIDPDITKASTISSEFYTSTEWFEITKEKIFSKTWQFCISTEELTTNRQLIPFTLLPGYLEEPLLFAKDELGTIRCLSNVCTHRGKILIEEPCVAHKIKCSYHGRRFNFCGELLHMPEFELTKDFPSNNDNLSQISTGILEPFLFASLSPVVPFHEVFAEIKERLFWLPMEKMRLDKEKCKDYVVKSHWALYCENYLEALHIPFVHPSLRKVIDCNTYTTELFRYCNLQLALASPDEVSFDLPKGAQDYGKQVAAYYFWIFPNTMLNFYPWGCSVNVVKPLSPELTQVSFLSFVLDESKFGKGAGGALDQVEQEDERVVESVQRGIKSRYYDIGRFSPTKEQGTHHFQRLLCEFLND”, which “soluble on expression in E. coli” value is on record?
Answer: not soluble

Question: For “MNHSRTIPVVNIAGPGSQPEEEDFNFLPIPAGINLPLTPVLPEQALPAELRVARHILTTLIRDMDNPVATLPFPLSYKLNATEQQNSGLLDQLLGEGEISARVLLSDGKEQRIQETVFTGVWRVREYNADQQRVADEIIIGPIPESIWQTHPQPPITPELPPQPAGLMNGAFIAHEIAERVKQPVKEPHIINLTLLPVNDADREYLDHFLGEGCSAIFSRGYGKCRIVSTHFPGVWRVNYFNDMNTLLQDMIEIADIPDIAVAGIDDIEDAYAGLKNTLEWLKEYPVTENEPVVRMECKVCWWVYDPALGDDVWQIPPGVPFNQLPDYWCCPVCETSKSGFMVIDEGNSSCKD”, which “soluble on expression in E. coli” value is on record?
Answer: not soluble

Question: For “MGSDKIHHHHHHMSTLENVHASPIHFMSKPAEIEHTQRPLNEASHAPGYIYGDPDVLRREKERIFMKDWLCIAHVDELPNPGDFVTHTVIDEPVLIVRNRSGVLQAFYNQCRHRGVEVAEGRGNAKIFKCPYHAWSYDLDGKLIGVPFMKEAQGFDQKNCSLKPVRLDTWGGFIHISFDPDAEPLSSYMAEYEQEFGMLRQGELRLGLRWETDFDCNWKFVYENLMDIYHVGVTHADTIGRYQDQSSYRYLQLPRGRASIHYRAKTMSETGSSLFGRLPWIDDDSFARIGYLPPNLTMLARCDYVRPVTHWPTAVNRTHSVAYFLFPEDKIADPQFQEKIQTYVKFVEQVLDEDRGMILSLQRAMNTRGFEPGRMSFMENAIHHALGYHLERLFGPQSA”, which “soluble on expression in E. coli” value is on record?
Answer: not soluble

Question: Which “soluble on expression in E. coli” value does the source give for “SENWDLSSDEMQDGNAPELDVIEEHNPVTRDDENANPEEVVGDTRSPVQNILGKFEGDINKRLHIKRKRMETYIKDSFKDSNVKLEQLWKTNKQERKKINNKFCEQYITTFQKFDMDVQKFNEEQEKSVNNYQKEQQALKLSKCSQSQTLEAIKDMHENYMEGLMNLETNNYNMLFDVDGELRKEMSVFKKDLMKHTLKYSSSFPSSD” here?
Answer: not soluble

Question: With “SFRDCAEVFKSGHTTNGIYTLTFPNSTEEIKAYCDMEAGGGGWTIIQRREDGSVDFQRTWKEYKVGFGNPSGEYWLGNEFVSQLTNQQRYVLKIHLKDWEGNEAYSLYEHFYLSSEELNYRIHLKGLTGTAGKISSISQPGNDFSTKDGDNDKCICKCSQMLTGGWWFDACGPSNLNGMYYPQRQNTNKANGIKWAAWKGSGYSLKATTMMIRPADF” as the sequence, how does the “soluble on expression in E. coli” value read?
Answer: soluble

Question: With “MKTGKELKPGTVIRLENDPWLVQKAEFTKSGRNSAIMKTKLKNLLTGYKTEIVYSADDKLDDVILDRKEATLSFISGDTYTFMDTTDYTMYELNAEDIESVLPFVEEGMTDVCEAVFFDERLVSVELPTTIVRQVDYTEGSARGDTSGKVMKPAKLKNGTELSVADFIEIGDMIEIDTREGGSYKGRAKLEHHHHHH” as the sequence, how does the “soluble on expression in E. coli” value read?
Answer: not soluble

Question: Which “soluble on expression in E. coli” value does the source give for “MSDDALSRIAAALERMSPPPMPAPDFSAVDAFAWHTSPDRLEPVPRVARVDLSLLVGVNRARDILLDNTEHFARGLPANNALLWGSRGMGKSSLVKAIHAAVVAKGLPLKIVELSREDLPSVQRLLKHLRGAPFRFILFCDDLSFSHDDQHYKSLKAVLDGGIEGRPENVILYATSNRRHLMPRDMIENERSTAISPSEAVEEKVSLSDRFGLWLGFHPCSQDEYLEMIRGYCAAHGLSVAEEELRAEAIEWQATRGARSGRVAWQFFTDLAARHGVALLEHHHHHH” here?
Answer: not soluble

Question: For “MFQNSPMMYDWWNDTTKPKHQQPTLNVLSPWGAYFNHIGNELLHLKIASSTVSSGCSSPQQYSSARSVGNSLSNGSVVSTTSSDGDVQLSNKENSNDKSVGDKNGNTTTNKTTVEPPPPEEPPVRVRASHREKLSDSEVLNQLREIVNPSNPLGKYEMKKQIGVGASGTVFVANVAGSTDVVAVKRMAFKTQPKKEMLLTEIKVMKQYRHPNLVNYIESYLVDADDLWVVMDYLEGGNLTDVVVKTELDEGQIAAVLQECLKALHFLHRHSIVHRDIKSDNVLLGMNGEVKLTDMGFCAQIQPGSKRDTVVGTPYWMSPEILNKKQYNYKVDIWSLGIMALEMIDGEPPYLRETPLKAIYLIAQNGKPEIKQRDRLSSEFNNFLDKCLVVDPDQRADTTELLAHPFLKKAKPLSSLIPYIRAVREK”, which “soluble on expression in E. coli” value is on record?
Answer: not soluble

Question: For “MGSDKIHHHHHHMISMTQNNVEKWGTYEITLKGKAEGNPFTDVEIKAVFTSEAGDSFEVEGFYDGEDTFKIRFMPNRTGLWKYEVRSDIKDLDGMKGEFLCVDPSEGNHGPVRVCNTYHFCYEDGTPYHPFGTTLYAWVHQREELIQQTLESLRNSPFNKVRMCVFPKYYAYNREEPPMLPMSWREEDGRYQVEFNVKFFQHFERLVKELMDMGIEADVILFHPYDKWGFCSMPEEVDKAYLRYLIARISSYRNVWWSMANEYDLIKPQKDWDGYFHFIVEKDPYNHLRSVHQCFKFYDHTKPWITHASIQWQGSLRSWSGEPEIDIGINLIPKWREMYKKPVIIDECGYEGNIEYGWGNLPPQEMMNRFWEGVTSGGYVTHGETYYSEDEVLWWSKGGRLKGESPKRIAFLRTIIEEAPPFLKPIKLDPMMDWDVHCIGKEGEYYLIYFDINRPVKRTLKLPEGKYRVDLVDCWETEIHSLGIFQGQVVIRLPGKSYVALRIQKMENNDDWIILREDAKL”, which “soluble on expression in E. coli” value is on record?
Answer: not soluble

Question: With “MEEKWCNYLLNEGRDWKTMNKTILKTCIISAVLGGVLLTEKNGEVKAEEITPQTNHTGVFKDVPKGHWAYEAIQQLTDEKIVFGYDDGRFGFGDNVTREQVAALLYRYFNLAEEKNYENPYGDVSEESTSYIKEILSLTEMGVFKGDEHGNFRPKASLTRAEMAQVLTNAFHLKAKSNHTFNDVSTNSWASNAISAVQTNNIAKGVGGGNFAPNMDVTREQYAQFLYNAIQETEKTQETKGQLLASILGETNWQGTKVYDKDHNDVTKENQNFIGLAKYDAKTARYEFFNASTGESRNDSGTFFITNDGKKRVLISETQNYQAVVELTQLDKEKFTYKRMGKDAKRNDVEVFVEHIPYQEKELSFTRPDKNLESSTGKIVTDVDGDKILSSTLWNGTVVLDEQGNNVTKYNSNLISLAKYDKNTNKYEFFNVNTGESRGDYGFFDVVHDNKIRAHVSLGNNKYGAVLELTELNKEKFTYTRMGKDANGKDIKIFVEHEPNTGDLKPNFTK” as the sequence, how does the “soluble on expression in E. coli” value read?
Answer: not soluble

Question: With “MCLDVLIHYPQEKADEMISHLCSLAQSRIILSFAPKTCALTLLKKIGSFFPGPSKTTRAYLHREADVIKILESNGFAIQRKEFTKTRFYFSRILEATRSLEHHHHHH” as the sequence, how does the “soluble on expression in E. coli” value read?
Answer: not soluble

Question: For “MSLDINQIALHQLIKRDEQNLELVLRDSLLEPTETVVEMVAELHRVYSAKNKAYGLFSEESELAQTLRLQRQGEEDFLAFSRAATGRLRDELAKYPFADGGFVLFCHYRYLAVEYLLVAVLSNLSSMRVNENLDINPTHYLDINHADIVARIDLTEWETNPESTRYLTFLKGRVGRKVADFFMDFLGASEGLNAKAQNRGLLQAVDDFTAEAQLDKAERQNVRQQVYSYCNEQLQAGEEIELKSLSKELAGVSEVSFTEFAAEKGYELEESFPADRSTLRQLTKFAGSGGGLTINFDAMLLGERIFWDPATDTLTIKGTPPNLRDQLQRRTSGGNLEHHHHHH”, which “soluble on expression in E. coli” value is on record?
Answer: not soluble

Question: With “LSPSLPSVEALRNVQLQIPLKVYSEDGKLISEFGEMRRTPIRFADIPQDFIHALLSAEDDNFANHYGVDVKSLMRAAAQLLKSGHIQTGGSTITMQVAKNYFLTNERSFSRKINEILLALQIERQLTKDEILELYVNKIYLGNRAYGIEAAAQVYYGKPIKDLSLAEMAMIAGLPKAPSRYNPLVNPTRSTERRNWILERMLKLGFIDQQRYQAAVEEPINASYHVQTPELNAPYIAEMARAEMVGRYGSEAYTEGYKVITTVRSDLQNAASQSVRDGLIDYDQRHGYRGPETRLPGQTRDAWLKHLGQQRSIGGLEPAIVTQVEKSGIMVMTRDGKEEAVTWDSMKWARPFLSNNSMGPMPRQPADVAQAGDQIRVQRQEDGTLRFVQIPAAQSALISLDPKDGAIRSLVGGFSFEQSNYNRAIQAKRQPGSSFKPFIYSAALDNGFTAASLVNDAPIVFVDEYLDKVWRPKNDTNTFLGPIPLREALYKSRNMVSIRVLQGLGIERAISYITKFGFQRDELPRNFSLALGTATVTPMEIAGAWSVFANGGYKVNPYVIERIESRDGQVLYQANPPRVPVEEQVAADAEDAGNPGDPEHPESAEGEGSIEAQQVAAKAQTTFEPTPAERIIDARTAYIMTSMLQDVIKRGTGRRALALKRTDLAGKTGTTNDSKDGWFSGYNSDYVTSVWVGFDQPETLGRREYGGTVALPIWIRYMGFALKDKPMHTMAEPPGIVSLRIDPVTGRSAAPGTPGAYFEMFKNEDTPPSVNELPPGSFPGSPLPDDEGAPIDL” as the sequence, how does the “soluble on expression in E. coli” value read?
Answer: not soluble

Question: With “MGHHHHHHSHMRLLKSELGSFITDYFQNQLLAKGLFFVEEKIKLCEGENRIEVLAEVWDHFFTETLPTLQAIFYPVQSVHEPTGPSESYLQLEELVKQVVSPFLGISGDRSFSGPTYTLARRHSRVRPKVTVLNYASPITAVSRPLNEMVLTPLTEQEGEAYLEKCGSVRRHTVANAHSDIQLLAMATMMHSGLGEEASSENKCLLLPPSFPPPHRQCSSEPNITDNPDGLEEGARGSQEGSELNCASLS” as the sequence, how does the “soluble on expression in E. coli” value read?
Answer: not soluble

Question: Which “soluble on expression in E. coli” value does the source give for “MPCDPIGQFAVLECLDYRWYESLDVRLYGSFGLLQLFPELEKAVMRAFARAIPQGDDTPRVIGYYYTIGAESPIAVRKTPGATPHDLGAPNEHVWEKTNYTSYQDCNLWKDLGCDFVLQVYRDFLLTGADDVQFLRDCWDAIVETLDYVKTFDLDGDGIPENSGAPDQTFDDWRLQGVSAYCGGLWLAALAAAIAISDILLQNHQDSATKEHLLYQKSTYETWLTKSLPIYQEKLWNGKYYRLDSESGSDVVMADQLCGQFYANLLELPDIVPSDRAISALQTVYDACFLKFYDGQFGAANGVRPDGSPENPKATHPLEVWTGINFGLAAFLVQMGMKDEGFRLTQAVVEQIYNNGLQFRTPEAITAAGTFRASTYLRPMAIWAIYLMIGLEHHHHHH” here?
Answer: not soluble

Question: Which “soluble on expression in E. coli” value does the source give for “MPSPMSTLTTYSEPRGSTTYTLPAMEPSVSRLDTDMNSGLMPRYIFLTPLDSITLLASSGTLLEKPGQDIQRSSPTDSTSHSTRFIGGAPMKVATNVCFGLM” here?
Answer: not soluble

Question: With “MSLKSHKLLYQLKNKLTWLPILILAACQNNIIYHSYAPVPLDGWDKSDTLVYTLPNSIPAGNYEAEIGIRYQESYPYRDIWLEVSHNTKDTLTYVTDTLQLFLVDEAGNKTGNGLCGLYQCDLPYKASIPIRTEGSARTFRIVHIMTDNPLTGISDIGIRLRKPENEGHHHHHH” as the sequence, how does the “soluble on expression in E. coli” value read?
Answer: not soluble
